Measured values published in patent JP2020075879A (dated 2020).

Target: T1, C末端FLAGタグを有する切り捨てられたヒトRNF43 (Ba/F3 E12細胞に発現) (human, UniProt Q68DV7 24-237)
T1 construct: also called E12細胞株; Ba/F3 E12トランスフェクタント
T1 sequence: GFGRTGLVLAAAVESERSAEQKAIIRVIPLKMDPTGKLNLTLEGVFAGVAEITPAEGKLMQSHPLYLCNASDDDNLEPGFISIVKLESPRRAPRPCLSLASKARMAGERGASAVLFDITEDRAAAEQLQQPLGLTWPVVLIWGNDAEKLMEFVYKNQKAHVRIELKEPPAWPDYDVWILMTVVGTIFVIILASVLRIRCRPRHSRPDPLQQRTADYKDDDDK
Test: flow cytometry on Ba/F3 E12 cells, antibody at 2.5 microg/ml, PE anti-human IgG detection

binding result: binds
B1: 抗RNF43単一特異性抗体RNN0802 (antibody, human IgG1, kappa, N297A, V domains shown)
VH: QSLEESGGRLVTPGGSLTLTCRVSGFSLSNYDMSWVRQAPGKGLEWIGFITSSGRTYYASWAKGRFTISKTSTMVDLKITSPTTEDTATYFCARDFENDDSAMWGPGTLVTVSS
VL: DVVMTQTPSSVSAAVGGTVTINCQASQSVYDNNLAWYQQKPGQPPKLLIYKASKLASGVPSRFKGSGSGTEFTLTISDLECADAATYYCQSNYYSNTNGLGSFGGGTKVEIKR
notes: also called 単一特異的RNN0802; 単一特異的RNN0802(二価IgG)
